Positions count from the first letter of the chain named.
What was measured:
[1] = target: T1, wild-type human KIR3DL2 polypeptide (allele *002) (human, UniProt P43630 22-455); experiment: binding to HEK-293T cells transfected with wild-type KIR3DL2
T1 construct: also called WTaKIR3DL2; unmutated wild type KIR3DL2

[2] = target: T2, KIR3DL2 mutant M1 (R13W; A25T; Q27R) (human, UniProt P43630 22-455); experiment: binding to HEK-293T cells transfected with KIR3DL2 mutant
T2 construct: On transfected HEK-293T cells; also called Mutant 1; Number 1

[3] = target: T3, KIR3DL2 mutant M4 (S45I; V47I) (human, UniProt P43630 22-455); experiment: as above
T3 construct: On transfected HEK-293T cells; also called Number 4

[4] = target: T4, KIR3DL2 mutant M1 + 2 (R13W; A25T; Q27R; I60N; G62S) (human, UniProt P43630 22-455); experiment: as above
T4 construct: On transfected HEK-293T cells; also called Number 30 (1 + 2)

[5] = target: T5, KIR3DL2 mutant M1 + 2A5 (S140Q) (human, UniProt P43630 22-455); experiment: as above
T5 construct: On transfected HEK-293T cells; also called Number 37 (1 + 2 A5)

[6] = target: T6, KIR3DL2 mutant M2 (I60N; G62S) (human, UniProt P43630 22-455); experiment: as above
T6 construct: On transfected HEK-293T cells; also called Mutant 2; Number 2

[7] = target: T7, KIR3DL2 mutant M3 (R32H; G33R) (human, UniProt P43630 22-455); experiment: as above
T7 construct: On transfected HEK-293T cells; also called Mutant 3; Number 3

[8] = target: T8, KIR3DL2 mutant M6 (R78H; L82P) (human, UniProt P43630 22-455); experiment: as above
T8 construct: On transfected HEK-293T cells; also called Mutant 6; Number 6

[9] = target: T9, KIR3DL2 mutant MD0/HLA2 (H29S; F34A) (human, UniProt P43630 22-455); experiment: as above
T9 construct: On transfected HEK-293T cells; also called Number 32 (DO-HLA2)

[10] = target: T10, KIR3DL2 mutant MD0/HLA1 (F9S; S11A) (human, UniProt P43630 22-455); experiment: as above
T10 construct: On transfected HEK-293T cells; also called Number 31 (DO-HLA1)

[11] = target: T11, KIR3DL2 mutant M1 + 2A1 (F50A; R53S) (human, UniProt P43630 22-455); experiment: as above
T11 construct: On transfected HEK-293T cells; also called Number 33 (1 + 2 A1)

[12] = target: T12, KIR3DL2 mutant M5 (P66T) (human, UniProt P43630 22-455); experiment: as above
T12 construct: On transfected HEK-293T cells; also called Number 5

[13] = target: T13, KIR3DL2 mutant M1 + 2A3 (P14S; S15A; H23S) (human, UniProt P43630 22-455); experiment: binding to HEK-293T cells transfected with KIR3DL2 mutant; '-' = substantially complete loss of binding
T13 construct: On transfected HEK-293T cells; also called mutant 2A3; Number 35 (1 + 2 A3)

[14] = target: T13, KIR3DL2 mutant M1 + 2A3 (P14S; S15A; …); experiment: binding to HEK-293T cells transfected with KIR3DL2 mutant
[15] = target: T2, KIR3DL2 mutant M1 (R13W; A25T; Q27R); experiment: binding to HEK-293T cells transfected with KIR3DL2 mutant; '-' = substantially complete loss of binding
[16] = target: T4, KIR3DL2 mutant M1 + 2 (R13W; A25T; …); experiment: as above
[17] = target: T6, KIR3DL2 mutant M2 (I60N; G62S); experiment: as above
[18] = target: T14, KIR3DL2 mutant M21 (C281Y; C315P) (human, UniProt P43630 22-455); experiment: binding to HEK-293T cells transfected with KIR3DL2 mutant
T14 construct: On transfected HEK-293T cells; also called Number 21

[19] = target: T15, KIR3DL2 mutant M19 (A278H; L279S; V282E) (human, UniProt P43630 22-455); experiment: as above
T15 construct: On transfected HEK-293T cells; also called Number 19

[20] = target: T16, KIR3DL2 mutant M13 (T212A; N218A) (human, UniProt P43630 22-455); experiment: as above
T16 construct: On transfected HEK-293T cells; also called Number 13

[21] = target: T17, KIR3DL2 mutant M18 (A278H; L279A; C281A; V282A) (human, UniProt P43630 22-455); experiment: as above
T17 construct: On transfected HEK-293T cells; also called Number 18

[22] = target: T18, KIR3DL2 mutant M12 (I196A; L199A; N285A; S286A) (human, UniProt P43630 22-455); experiment: as above
T18 construct: On transfected HEK-293T cells; also called Mutant 12; Number 12

[23] = target: T19, KIR3DL2 mutant M17 (P249A) (human, UniProt P43630 22-455); experiment: as above
T19 construct: On transfected HEK-293T cells; also called Mutant 17; Number 17

[24] = target: T20, KIR3DL2 mutant M14 (W226A) (human, UniProt P43630 22-455); experiment: binding to HEK-293T cells transfected with KIR3DL2 mutant; '-' = substantially complete loss of binding
T20 construct: On transfected HEK-293T cells; also called Mutant 14; Number 14

Measured: binding result

B1: antibody 1E2 (antibody, V domains shown)
VH: QVQLQQSGAELVRPGVSVKISCKGSGYTFTDYAMNWVKQSHAKSLEWIGVISTYYGDANYNQKFKGKATMTVDKSSSTAYMELARLTSEDSAIYYCALIYYDYDGSYWGQGTTLTVS
VL: DVVMTQTPLSLPVSLGDQASISCRSSQSLVHSNGNTYLHWYLQKPGQSPKLLIYKVSNRFSGVPDRFSGSGSGTDFTLKISRVEAEDLGVYFCSQSTHVPPYTFGGGTKLEIK
notes: Parental murine monoclonal antibody
binds: [1] | [2] | [3] | [4] | [5] | [6] | [7] | [8] | [9] | [10] | [11] | [12]
no binding: [13]

B2: antibody 13H1 (antibody, V domains shown)
VH: EVQLQQSGPELVKPGASMKISCKASHYSFIGYTMNWVKQRHGKNLEWIGLINPYNGDTTYNQKFKGKASLTVDKSSSTAYMEILSLTSEDSAVYYCARENWGYPYAMDYWGQGTSVTVS
VL: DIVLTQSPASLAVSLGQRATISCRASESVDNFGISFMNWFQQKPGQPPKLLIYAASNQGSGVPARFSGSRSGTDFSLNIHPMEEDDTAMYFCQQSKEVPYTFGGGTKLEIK
notes: as for B1
no binding: [15] | [16] | [17]
binds: [3] | [14] | [7] | [8] | [11]

B3: antibody 10F6 (antibody, V domains shown)
VH: QIQLVQSGPELKKPGETVRISCKASGYTFTIAGMQWVQKMPGKGLKWIGWINTHSGVPKYAEDFKGRFAFSLETSANIAYLQISNLKNEDTATYFCARGGDEGVMDYWGQGTSVTVS
VL: DIVMTQSHKFMSTSVGDRVSITCKASQDVSTAVAWYHQKPGQSPKLLIYWASTRHTGVPDRFSGSGSGTDYTLTISALQAEDLALYYCQQHYNTPWTFGGGTKLEIK
notes: as for B1
binds: [1] | [2] | [3] | [5] | [7] | [8] | [9] | [10] | [11] | [12]
no binding: [16] | [17]

B4: antibody 2B12 (antibody, V domains shown)
VH: B3 VH with I31T, M40T, T53S, N77S, I78T, N85T
VL: B3 VL with V15L, I21F, H37Q, A51T, S63T, A77S, L78V, N93S
notes: as for B1
binds: [1] | [2] | [3] | [5] | [7] | [8] | [9] | [10] | [11] | [12]
no binding: [16] | [17]

B5: antibody 1C3 (antibody, V domains shown)
VH: QVQLQQSGAELARPGASVKLSCKASGYTFTSYWMQWVKQRPGQGLEWIGAIYPGDGDTRYTQKFKGKATLTADKSSSTAYMQLSSLASEDSAVYYCARRYDGYYHFDYWGQGTTLTVS
VL: DIVMTQSPSSLAVTAGEKVTMSCKSSQSLLWSVNQKNYLSWYQQKQRQPPKLLIYGASIRESWVPDRFTGSGSGTDFTLTISNVHAEDLAVYYCQHNHGSFLPLTFGSGTKLEIK
notes: Parental murine monoclonal antibody; also called 1C3 MAb
no binding: [24]
binds: [1] | [18] | [19] | [20] | [21] | [22] | [23]

B6: antibody 20E9 (antibody, V domains shown)
VH: QVQLQQSGAEVARPGASVKLSCKSSGFTFTTYWMQWVKQRPGQGLEWIGAIYPGDGDTRYTQKFKGKATLTADKSSITAYMQLSSLASEDSAVYYCARRGDYGNYGMDYWGQGTSVTVSS
VL: DVLMTQTPLSLPVSLGDQASISCRSSQSIVHSNGNTYLEWYLQKPGQSPKLLIYKVSNHFSGVPDRFSGSGSGTDFTLKISRVEAEDLGVYYCFQGSHVPPTFGGGTKLEIK
notes: as for B1
no binding: [24]
binds: [1] | [18] | [19] | [20] | [21] | [22] | [23]
